Experiments:
GST-Obsc_(6231–6260) = molecular target: T1, GST-Obsc_(6231–6260) (rat); assay: SPR
T1 chain: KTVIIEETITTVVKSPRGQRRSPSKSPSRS

GST-Obsc_(6316–6345) = GST-Obsc_(6316–6345) (rat); assay: SPR

B1: MBP-sAnk1_(29–155) (domain or fragment)
chain: VKGSLCFVLKHIHQELDKELGESEGLSDDEETISTRVVRRRVFLKGDELQNIPGEQVTEEQFTDEQGNIVTKKIIRKVVRQVDSSGAIDTQQHEEVELRGSGLQPDLIEGRKGAQIVKRASLKRGKQ
With B1 the Kd (GST-Obsc_(6231–6260)) was 384 ± 53 nM, the Kd (GST-Obsc_(6316–6345)) was 133 nM and the koff (GST-Obsc_(6316–6345)) was 0.000792 s⁻¹. The kon (GST-Obsc_(6316–6345)) was 6290 M⁻¹ s⁻¹.

Source: publication PMC3000613 (Biochemistry, 2010)
